Measurements taken from paper PMC10397247.
Blank lines part the entries; values can stand above or below the binder they belong to.

How the values were obtained:
[1] = target: T1, O16; test: two-hybrid library CCNG1;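 further: natural log of median RNA to DNA barcode read ratio; higher means stronger binding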
T1 chain: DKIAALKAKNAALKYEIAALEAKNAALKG

[2] = target: T2, O2; test: two-hybrid library CCNG1;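 further: natural log of median RNA to DNA barcode read ratio; higher means stronger binding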
T2 chain: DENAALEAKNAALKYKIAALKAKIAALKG

[3] = target: T3, O3; test: two-hybrid library CCNG1;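 further: natural log of median RNA to DNA barcode read ratio; higher means stronger binding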
T3 chain: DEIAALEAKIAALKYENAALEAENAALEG

[4] = target: T4, O4; test: two-hybrid library CCNG1;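 further: natural log of median RNA to DNA barcode read ratio; higher means stronger binding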
T4 chain: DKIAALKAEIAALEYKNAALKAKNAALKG

[5] = target: T5, O5; test: two-hybrid library CCNG1
T5 chain: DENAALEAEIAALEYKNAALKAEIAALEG

[6] = target: T6, O6; test: two-hybrid library CCNG1
T6 chain: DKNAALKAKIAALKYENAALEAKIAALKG

[7] = target: T7, O7; test: two-hybrid library CCNG1
T7 chain: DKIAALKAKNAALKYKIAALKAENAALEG

[8] = target: T8, O8; test: two-hybrid library CCNG1
T8 chain: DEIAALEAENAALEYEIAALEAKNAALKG

[9] = target: T9, O9; test: two-hybrid library CCNG1
T9 chain: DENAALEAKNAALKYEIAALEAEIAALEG

[10] = target: T10, 4H2518-bN; test: two-hybrid library CCNG1
T10 chain: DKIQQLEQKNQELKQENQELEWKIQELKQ

[11] = target: T11, 4H2585-bN; test: two-hybrid library CCNG1
T11 chain: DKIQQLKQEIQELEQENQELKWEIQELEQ

[12] = target: T12, 4H264-bN; test: two-hybrid library CCNG1
T12 chain: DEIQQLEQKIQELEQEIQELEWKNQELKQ

[13] = target: T13, 4H2760-bN; test: two-hybrid library CCNG1
T13 chain: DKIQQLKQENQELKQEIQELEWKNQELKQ

[14] = target: T14, 4H2859-bN; test: two-hybrid library CCNG1
T14 chain: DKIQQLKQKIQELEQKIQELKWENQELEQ

[15] = target: T15, 4H2931-bN; test: two-hybrid library CCNG1
T15 chain: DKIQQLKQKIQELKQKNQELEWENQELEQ

[16] = target: T16, 4H3041-bN; test: two-hybrid library CCNG1
T16 chain: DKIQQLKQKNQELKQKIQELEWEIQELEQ

[17] = target: T17, 4H3297-bN; test: two-hybrid library CCNG1
T17 chain: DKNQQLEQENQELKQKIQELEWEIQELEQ

[18] = target: T18, 4H3364-bN; test: two-hybrid library CCNG1
T18 chain: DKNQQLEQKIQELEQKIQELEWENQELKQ

[19] = target: T19, 4H3381-bN; test: two-hybrid library CCNG1
T19 chain: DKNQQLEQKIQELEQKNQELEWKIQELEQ

[20] = target: T20, 4H349-bN; test: two-hybrid library CCNG1
T20 chain: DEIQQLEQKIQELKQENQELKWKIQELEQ

[21] = target: T21, 4H56-bN; test: two-hybrid library CCNG1
T21 chain: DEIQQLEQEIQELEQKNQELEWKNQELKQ

[22] = target: T22, 4H570-bH; test: two-hybrid library CCNG1
T22 chain: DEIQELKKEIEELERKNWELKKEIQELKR

[23] = target: T23, 4H730-bN; test: two-hybrid library CCNG1
T23 chain: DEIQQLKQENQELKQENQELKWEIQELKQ

[24] = target: T24, 4H796-bN; test: two-hybrid library CCNG1
T24 chain: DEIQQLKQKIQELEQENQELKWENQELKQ

[25] = target: T25, 4H932-bN; test: two-hybrid library CCNG1
T25 chain: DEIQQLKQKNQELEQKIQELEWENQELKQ

[26] = target: T26, 4H949-bN; test: two-hybrid library CCNG1
T26 chain: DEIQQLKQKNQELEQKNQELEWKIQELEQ

[27] = target: T27, O16-bP; test: two-hybrid library CCNG1
T27 chain: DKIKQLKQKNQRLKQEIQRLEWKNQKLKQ

[28] = target: T28, O2-bP; test: two-hybrid library CCNG1
T28 chain: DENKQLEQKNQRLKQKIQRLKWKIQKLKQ

[29] = target: T29, O3-bP; test: two-hybrid library CCNG1
T29 chain: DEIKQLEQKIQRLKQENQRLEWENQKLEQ

[30] = target: T30, O4-bP; test: two-hybrid library CCNG1
T30 chain: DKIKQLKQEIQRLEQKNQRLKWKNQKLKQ

[31] = target: T31, O5-bP; test: two-hybrid library CCNG1
T31 chain: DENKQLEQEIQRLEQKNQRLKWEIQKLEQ

[32] = target: T32, O6-bP; test: two-hybrid library CCNG1
T32 chain: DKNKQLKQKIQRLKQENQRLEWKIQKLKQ

[33] = target: T33, O7-bP; test: two-hybrid library CCNG1
T33 chain: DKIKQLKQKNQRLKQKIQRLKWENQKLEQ

[34] = target: T34, O8-bP; test: two-hybrid library CCNG1
T34 chain: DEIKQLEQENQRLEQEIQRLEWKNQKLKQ

[35] = target: T35, O9-bP; test: two-hybrid library CCNG1
T35 chain: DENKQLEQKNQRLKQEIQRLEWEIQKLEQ

[36] = target: T36, 4H_BCR; test: two-hybrid library CCmax
T36 chain: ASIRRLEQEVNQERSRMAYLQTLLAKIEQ

[37] = target: 4H_GCN4; test: two-hybrid library CCmax; details: mean of both orientations
Chain of 4H_GCN4 (chain, as listed by the source): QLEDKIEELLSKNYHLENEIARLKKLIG

[38] = target: T37, AP1-AA; test: two-hybrid library CCmax; details: mean of both orientations
T37 chain: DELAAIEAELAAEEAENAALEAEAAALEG

[39] = target: T38, AP2-AA; test: two-hybrid library CCmax; details: mean of both orientations
T38 chain: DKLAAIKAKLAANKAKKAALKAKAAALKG

[40] = target: T39, AP3-AA; test: two-hybrid library CCmax; details: mean of both orientations
T39 chain: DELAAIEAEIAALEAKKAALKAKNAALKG

[41] = target: T40, AP4-AA; test: two-hybrid library CCmax; details: mean of both orientations
T40 chain: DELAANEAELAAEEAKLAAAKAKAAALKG

[42] = target: T41, AP5-AA; test: two-hybrid library CCmax; details: mean of both orientations
T41 chain: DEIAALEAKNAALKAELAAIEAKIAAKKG

[43] = target: T42, AP6-AA; test: two-hybrid library CCmax; details: mean of both orientations
T42 chain: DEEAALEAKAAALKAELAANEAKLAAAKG

[44] = target: T43, AP7-AA; test: two-hybrid library CCmax; details: mean of both orientations
T43 chain: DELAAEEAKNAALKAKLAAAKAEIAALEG

[45] = target: T44, AP8-AA; test: two-hybrid library CCmax; details: mean of both orientations
T44 chain: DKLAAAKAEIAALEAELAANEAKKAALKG

[46] = target: GCN2_T; test: two-hybrid library CCmax
[47] = target: T45, O11-AA; test: two-hybrid library CCmax; details: mean of both orientations
T45 chain: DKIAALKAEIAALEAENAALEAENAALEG

[48] = target: T46, O13-AA; test: two-hybrid library CCmax; details: mean of both orientations
T46 chain: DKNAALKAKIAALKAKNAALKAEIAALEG

[49] = target: T47, O14-AA; test: two-hybrid library CCmax; details: mean of both orientations
T47 chain: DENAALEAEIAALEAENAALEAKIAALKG

[50] = target: T48, P1-AA; test: two-hybrid library CCmax; details: mean of both orientations
T48 chain: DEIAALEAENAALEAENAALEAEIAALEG

[51] = target: T49, P10-AA; test: two-hybrid library CCmax; details: mean of both orientations
T49 chain: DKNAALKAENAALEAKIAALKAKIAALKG

[52] = target: T50, P11-AA; test: two-hybrid library CCmax; details: mean of both orientations
T50 chain: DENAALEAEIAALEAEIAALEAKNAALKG

[53] = target: T51, P12-AA; test: two-hybrid library CCmax; details: mean of both orientations
T51 chain: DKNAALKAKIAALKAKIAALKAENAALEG

[54] = target: T52, P2-AA; test: two-hybrid library CCmax; details: mean of both orientations
T52 chain: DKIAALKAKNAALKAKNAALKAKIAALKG

[55] = target: T53, P3-AA; test: two-hybrid library CCmax; details: mean of both orientations
T53 chain: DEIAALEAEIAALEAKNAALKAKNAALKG

[56] = target: T54, P4-AA; test: two-hybrid library CCmax; details: mean of both orientations
T54 chain: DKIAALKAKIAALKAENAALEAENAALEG

[57] = target: T55, P7-AA; test: two-hybrid library CCmax; details: mean of both orientations
T55 chain: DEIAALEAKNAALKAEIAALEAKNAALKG

[58] = target: T56, P8-AA; test: two-hybrid library CCmax; details: mean of both orientations
T56 chain: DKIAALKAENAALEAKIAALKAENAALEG

[59] = target: T57, P9-AA; test: two-hybrid library CCmax; details: mean of both orientations
T57 chain: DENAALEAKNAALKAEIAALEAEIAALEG

[60] = target: T58, zCON9_A; test: two-hybrid library CCmax
T58 chain: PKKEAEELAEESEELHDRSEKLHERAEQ

[61] = target: T59, zCON9_B; test: two-hybrid library CCmax; details: mean of both orientations
T59 chain: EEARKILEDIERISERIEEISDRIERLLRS

[62] = target: T60, zCON9_D; test: two-hybrid library CCmax; details: mean of both orientations
T60 chain: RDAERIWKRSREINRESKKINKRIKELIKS

[63] = target: T61, O15; test: two-hybrid library CCNG1
T61 chain: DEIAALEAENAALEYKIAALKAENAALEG

[64] = target: T62, O15-bP; test: two-hybrid library CCNG1
T62 chain: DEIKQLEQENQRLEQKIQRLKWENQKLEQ

B1: O16 (peptide)
chain: DKIAALKAKNAALKYEIAALEAKNAALKG
interaction score [1]: -2.69 | interaction score [2]: -2.29 | interaction score [3]: -1.85 | interaction score [4]: -1.89 | interaction score [5]: -1.91 | interaction score [6]: -1.46 | interaction score [7]: -1.81 | interaction score [8]: -0.596 | interaction score [9]: -2.26

B2: 4H2518-bN (peptide)
chain: DKIQQLEQKNQELKQENQELEWKIQELKQ
interaction score [10]: -0.0161 | interaction score [11]: 0.403 | interaction score [12]: 1.11 | interaction score [13]: 0.227 | interaction score [14]: -0.834 | interaction score [15]: -0.539 | interaction score [16]: -0.522 | interaction score [17]: -0.555 | interaction score [18]: -0.536 | interaction score [19]: -0.272 | interaction score [20]: -0.274 | interaction score [21]: -0.0872 | interaction score [22]: -2.15 | interaction score [23]: 1.02 | interaction score [24]: 0.473 | interaction score [25]: -0.482 | interaction score [26]: -0.152

B4: 4H_BCR (peptide)
chain: ASIRRLEQEVNQERSRMAYLQTLLAKIEQ
interaction score [36]: -1.84 | interaction score [37]: -1.7 | interaction score [38]: -1.92 | interaction score [39]: -2.54 | interaction score [40]: -1.8 | interaction score [41]: -1.51 | interaction score [42]: -1.5 | interaction score [43]: -1.75 | interaction score [44]: -1.69 | interaction score [45]: -1.28 | interaction score [46]: -2.01 | interaction score [47]: -1.66 | interaction score [48]: -1.72 | interaction score [49]: -0.776 | interaction score [50]: -1.71 | interaction score [51]: -1.67 | interaction score [52]: -1.68 | interaction score [53]: -1.94 | interaction score [54]: -2.08 | interaction score [55]: -2.12 | interaction score [56]: -1.94 | interaction score [57]: -1.28 | interaction score [58]: -1.85 | interaction score [59]: -1.88 | interaction score [60]: -2.12 | interaction score [61]: -0.916 | interaction score [62]: -1.5

B6: O15-bP (peptide)
chain: DEIKQLEQENQRLEQKIQRLKWENQKLEQ
interaction score [64]: -0.0595 | interaction score [27]: 1.51 | interaction score [28]: -1.39 | interaction score [29]: -0.872 | interaction score [30]: -1.2 | interaction score [31]: -0.178 | interaction score [32]: -0.729 | interaction score [33]: -0.235 | interaction score [34]: -0.223 | interaction score [35]: -1.06

Further lines, results first:

interaction score [27]: -0.576 | interaction score [28]: -1.5 | interaction score [29]: -1.06 | interaction score [30]: -1.21 | interaction score [31]: -0.672 | interaction score [32]: 0.641 | interaction score [33]: -1.1 | interaction score [34]: 1.44 | interaction score [35]: -1.13
B3: O16-bP (peptide)
chain: DKIKQLKQKNQRLKQEIQRLEWKNQKLKQ

interaction score [63]: -1.57 | interaction score [1]: 1.41 | interaction score [2]: -2.21 | interaction score [3]: -2.17 | interaction score [4]: -1.8 | interaction score [5]: -1.45 | interaction score [6]: -2.48 | interaction score [7]: -0.707 | interaction score [8]: -1.73 | interaction score [9]: -2.28
B5: O15 (peptide)
chain: DEIAALEAENAALEYKIAALKAENAALEG
